Legend:
Stu2-WT-Flag = target: T1, Stu2-WT-Flag (S. cerevisiae, UniProt P46675 1-888); experiment: SEC
T1 sequence (looked up): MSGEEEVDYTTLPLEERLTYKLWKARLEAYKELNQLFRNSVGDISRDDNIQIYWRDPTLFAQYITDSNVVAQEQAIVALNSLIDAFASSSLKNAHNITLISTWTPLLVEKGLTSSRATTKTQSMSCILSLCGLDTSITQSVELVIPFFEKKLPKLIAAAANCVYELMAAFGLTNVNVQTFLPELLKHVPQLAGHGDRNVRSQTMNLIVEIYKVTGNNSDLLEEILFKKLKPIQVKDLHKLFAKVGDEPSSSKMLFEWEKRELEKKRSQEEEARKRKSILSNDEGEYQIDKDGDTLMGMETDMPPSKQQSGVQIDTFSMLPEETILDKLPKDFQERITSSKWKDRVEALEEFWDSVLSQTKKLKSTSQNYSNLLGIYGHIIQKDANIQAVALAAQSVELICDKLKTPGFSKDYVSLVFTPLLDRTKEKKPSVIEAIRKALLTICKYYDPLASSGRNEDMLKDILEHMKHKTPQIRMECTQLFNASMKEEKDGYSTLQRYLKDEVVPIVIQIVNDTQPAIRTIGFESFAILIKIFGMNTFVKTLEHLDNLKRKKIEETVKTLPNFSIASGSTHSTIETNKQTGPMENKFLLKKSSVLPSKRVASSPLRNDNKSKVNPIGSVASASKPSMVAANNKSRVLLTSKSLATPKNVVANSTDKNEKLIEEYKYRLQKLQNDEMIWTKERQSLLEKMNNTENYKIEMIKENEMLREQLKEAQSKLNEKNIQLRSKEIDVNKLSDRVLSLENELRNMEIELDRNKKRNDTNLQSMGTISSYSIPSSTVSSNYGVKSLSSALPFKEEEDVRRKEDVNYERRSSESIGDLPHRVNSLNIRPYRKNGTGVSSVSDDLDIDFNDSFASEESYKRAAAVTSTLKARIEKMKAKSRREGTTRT

Stu2-2D-Flag = target: T2, Stu2-2D-Flag (S. cerevisiae, UniProt P46675 1-888, S813D | S815D); experiment: SEC
T2 sequence (looked up): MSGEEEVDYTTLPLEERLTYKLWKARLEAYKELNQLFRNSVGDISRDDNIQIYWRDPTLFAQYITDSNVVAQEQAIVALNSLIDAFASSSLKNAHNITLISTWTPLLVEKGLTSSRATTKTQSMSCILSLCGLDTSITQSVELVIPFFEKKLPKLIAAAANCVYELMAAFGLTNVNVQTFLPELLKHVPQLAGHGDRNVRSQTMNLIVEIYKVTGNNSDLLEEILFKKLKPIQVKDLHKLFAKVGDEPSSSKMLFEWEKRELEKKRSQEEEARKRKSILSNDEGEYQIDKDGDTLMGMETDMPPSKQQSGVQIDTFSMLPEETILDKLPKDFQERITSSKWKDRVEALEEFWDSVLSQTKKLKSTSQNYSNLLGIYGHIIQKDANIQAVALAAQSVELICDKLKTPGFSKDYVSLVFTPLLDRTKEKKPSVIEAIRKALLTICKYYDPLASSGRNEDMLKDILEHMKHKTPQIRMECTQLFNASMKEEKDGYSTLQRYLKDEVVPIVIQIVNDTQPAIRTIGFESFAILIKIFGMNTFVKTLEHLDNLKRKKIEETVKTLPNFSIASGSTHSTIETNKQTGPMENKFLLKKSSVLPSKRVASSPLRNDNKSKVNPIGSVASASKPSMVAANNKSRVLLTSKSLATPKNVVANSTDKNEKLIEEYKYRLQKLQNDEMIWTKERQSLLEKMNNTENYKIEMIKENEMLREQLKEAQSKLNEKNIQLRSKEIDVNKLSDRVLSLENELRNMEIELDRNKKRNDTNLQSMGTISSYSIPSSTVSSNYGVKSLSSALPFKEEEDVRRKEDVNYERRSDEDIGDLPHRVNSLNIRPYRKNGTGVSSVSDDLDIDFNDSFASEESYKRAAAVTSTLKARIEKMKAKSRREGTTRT

B1: Bik1 (recombinant, from StrepII-TEV-Bik1) (natural protein, S. cerevisiae, UniProt P11709 1-440, looked up)
chain: MDRYQRKIGCFIQIPNLGRGQLKYVGPVDTKAGMFAGVDLLANIGKNDGSFMGKKYFQTEYPQSGLFIQLQKVASLIEKASISQTSRRTTMEPLSIPKNRSIVRLTNQFSPMDDPKSPTPMRSFRITSRHSGNQQSMDQEASDHHQQQEFGYDNREDRMEVDSILSSDRKANHNTTSDWKPDNGHMNDLNSSEVTIELREAQLTIEKLQRKQLHYKRLLDDQRMVLEEVQPTFDRYEATIQEREKEIDHLKQQLELERRQQAKQKQFFDAENEQLLAVVSQLHEEIKENEERNLSHNQPTGANEDVELLKKQLEQLRNIEDQFELHKTKWAKEREQLKMHNDSLSKEYQNLSKELFLTKPQDSSSEEVASLTKKLEEANEKIKQLEQAQAQTAVESLPIFDPPAPVDTTAGRQQWCEHCDTMGHNTAECPHHNPDNQQFF
B1: binds (Stu2-WT-Flag); binds (Stu2-2D-Flag).

Source: PMC5674874 (The Journal of Cell Biology, 2017)
